Laboratory results taken from the Human Domainome abundance scans (Beltran et al. 2025).
± gives the uncertainty stated by the source.

B1: Androgen receptor, residues 557 to 632; numbered along this chain, P10275 (parent)
chain: QKTCLICGDEASGCHYGALTCGSCKVFFKRAAEGKQKYLCASRNDCTIDKFRRKNCPSCRLRKCYEAGMTLGARKL

Variants of: B1
Assay: abundance fitness (aPCA) (normalised: wild type 0, dead -1); higher = more abundant; growth selection in yeast, the domain comes from the species named
Settings: Homo sapiens

First: QKTCLICGDEANGCHYGALTCGSCKVFFKRAAEGKQKYLCASRNDCTIDKFRRKNCPSCRLRKCYEAGMTLGARKL
Second: QKTCLICGDEAKGCHYGALTCGSCKVFFKRAAEGKQKYLCASRNDCTIDKFRRKNCPSCRLRKCYEAGMTLGARKL
The abundance fitness of the first is higher: 0.21 ± 0.1 for the first, -0.054 ± 0.061 for the second.

QKTCLICGDEAAGCHYGALTCGSCKVFFKRAAEGKQKYLCASRNDCTIDKFRRKNCPSCRLRKCYEAGMTLGARKL and QKTCLICGDEARGCHYGALTCGSCKVFFKRAAEGKQKYLCASRNDCTIDKFRRKNCPSCRLRKCYEAGMTLGARKL are within error of each other in abundance fitness: -0.046 ± 0.059 for the first, -0.06 ± 0.046 for the second.

QKTCLICGDEAEGCHYGALTCGSCKVFFKRAAEGKQKYLCASRNDCTIDKFRRKNCPSCRLRKCYEAGMTLGARKL and QKTCLICGDEALGCHYGALTCGSCKVFFKRAAEGKQKYLCASRNDCTIDKFRRKNCPSCRLRKCYEAGMTLGARKL are within error of each other in abundance fitness: 0.047 ± 0.054 for the first, 0.055 ± 0.074 for the second.

QKTCLICGDEAIGCHYGALTCGSCKVFFKRAAEGKQKYLCASRNDCTIDKFRRKNCPSCRLRKCYEAGMTLGARKL and QKTCLICGDEATGCHYGALTCGSCKVFFKRAAEGKQKYLCASRNDCTIDKFRRKNCPSCRLRKCYEAGMTLGARKL are within error of each other in abundance fitness: -0.091 ± 0.12 for the first, -0.149 ± 0.087 for the second.

QKTCLICGDEAFGCHYGALTCGSCKVFFKRAAEGKQKYLCASRNDCTIDKFRRKNCPSCRLRKCYEAGMTLGARKL and QKTCLICGDEACGCHYGALTCGSCKVFFKRAAEGKQKYLCASRNDCTIDKFRRKNCPSCRLRKCYEAGMTLGARKL are within error of each other in abundance fitness: -0.389 ± 0.23 for the first, -0.305 ± 0.15 for the second.

QKTCLICGDEADGCHYGALTCGSCKVFFKRAAEGKQKYLCASRNDCTIDKFRRKNCPSCRLRKCYEAGMTLGARKL and QKTCLICGDEAPGCHYGALTCGSCKVFFKRAAEGKQKYLCASRNDCTIDKFRRKNCPSCRLRKCYEAGMTLGARKL are within error of each other in abundance fitness: -0.031 ± 0.075 for the first, -0.077 ± 0.19 for the second.

QKTCLICGDEAMGCHYGALTCGSCKVFFKRAAEGKQKYLCASRNDCTIDKFRRKNCPSCRLRKCYEAGMTLGARKL and QKTCLICGDEAHGCHYGALTCGSCKVFFKRAAEGKQKYLCASRNDCTIDKFRRKNCPSCRLRKCYEAGMTLGARKL are within error of each other in abundance fitness: -0.026 ± 0.086 for the first, -0.237 ± 0.17 for the second.

QKTCLICGDEAGGCHYGALTCGSCKVFFKRAAEGKQKYLCASRNDCTIDKFRRKNCPSCRLRKCYEAGMTLGARKL and QKTCLICGDEAQGCHYGALTCGSCKVFFKRAAEGKQKYLCASRNDCTIDKFRRKNCPSCRLRKCYEAGMTLGARKL are within error of each other in abundance fitness: -0.056 ± 0.041 for the first, 0.049 ± 0.095 for the second.

QKTCLMCGDEASGCHYGALTCGSCKVFFKRAAEGKQKYLCASRNDCTIDKFRRKNCPSCRLRKCYEAGMTLGARKL and QKTCLLCGDEASGCHYGALTCGSCKVFFKRAAEGKQKYLCASRNDCTIDKFRRKNCPSCRLRKCYEAGMTLGARKL are within error of each other in abundance fitness: -0.811 ± 0.24 for the first, -0.789 ± 0.19 for the second.

QKTCLCCGDEASGCHYGALTCGSCKVFFKRAAEGKQKYLCASRNDCTIDKFRRKNCPSCRLRKCYEAGMTLGARKL and QKTCLRCGDEASGCHYGALTCGSCKVFFKRAAEGKQKYLCASRNDCTIDKFRRKNCPSCRLRKCYEAGMTLGARKL are within error of each other in abundance fitness: -0.327 ± 0.21 for the first, -0.525 ± 0.11 for the second.

QKTCLVCGDEASGCHYGALTCGSCKVFFKRAAEGKQKYLCASRNDCTIDKFRRKNCPSCRLRKCYEAGMTLGARKL and QKTCLQCGDEASGCHYGALTCGSCKVFFKRAAEGKQKYLCASRNDCTIDKFRRKNCPSCRLRKCYEAGMTLGARKL are within error of each other in abundance fitness: -0.243 ± 0.07 for the first, -0.459 ± 0.26 for the second.

Compared with QKTCLSCGDEASGCHYGALTCGSCKVFFKRAAEGKQKYLCASRNDCTIDKFRRKNCPSCRLRKCYEAGMTLGARKL, QKTCLTCGDEASGCHYGALTCGSCKVFFKRAAEGKQKYLCASRNDCTIDKFRRKNCPSCRLRKCYEAGMTLGARKL is higher in abundance fitness: -0.617 ± 0.16 for the first, -0.256 ± 0.11 for the second.

QKTCLDCGDEASGCHYGALTCGSCKVFFKRAAEGKQKYLCASRNDCTIDKFRRKNCPSCRLRKCYEAGMTLGARKL and QKTCLACGDEASGCHYGALTCGSCKVFFKRAAEGKQKYLCASRNDCTIDKFRRKNCPSCRLRKCYEAGMTLGARKL are within error of each other in abundance fitness: -0.646 ± 0.24 for the first, -0.427 ± 0.12 for the second.

QKTCLKCGDEASGCHYGALTCGSCKVFFKRAAEGKQKYLCASRNDCTIDKFRRKNCPSCRLRKCYEAGMTLGARKL and QKTCLITGDEASGCHYGALTCGSCKVFFKRAAEGKQKYLCASRNDCTIDKFRRKNCPSCRLRKCYEAGMTLGARKL are within error of each other in abundance fitness: -1.05 ± 0.28 for the first, -0.819 ± 0.47 for the second.

QKTCLIEGDEASGCHYGALTCGSCKVFFKRAAEGKQKYLCASRNDCTIDKFRRKNCPSCRLRKCYEAGMTLGARKL and QKTCLIVGDEASGCHYGALTCGSCKVFFKRAAEGKQKYLCASRNDCTIDKFRRKNCPSCRLRKCYEAGMTLGARKL are within error of each other in abundance fitness: -1.03 ± 0.39 for the first, -1.2 ± 0.34 for the second.

QKTCLILGDEASGCHYGALTCGSCKVFFKRAAEGKQKYLCASRNDCTIDKFRRKNCPSCRLRKCYEAGMTLGARKL and QKTCLIYGDEASGCHYGALTCGSCKVFFKRAAEGKQKYLCASRNDCTIDKFRRKNCPSCRLRKCYEAGMTLGARKL are within error of each other in abundance fitness: -0.886 ± 0.2 for the first, -0.583 ± 0.4 for the second.

QKTCLIWGDEASGCHYGALTCGSCKVFFKRAAEGKQKYLCASRNDCTIDKFRRKNCPSCRLRKCYEAGMTLGARKL and QKTCLINGDEASGCHYGALTCGSCKVFFKRAAEGKQKYLCASRNDCTIDKFRRKNCPSCRLRKCYEAGMTLGARKL are within error of each other in abundance fitness: -0.79 ± 0.47 for the first, -0.212 ± 0.14 for the second.

QKTCLIGGDEASGCHYGALTCGSCKVFFKRAAEGKQKYLCASRNDCTIDKFRRKNCPSCRLRKCYEAGMTLGARKL and QKTCLISGDEASGCHYGALTCGSCKVFFKRAAEGKQKYLCASRNDCTIDKFRRKNCPSCRLRKCYEAGMTLGARKL are within error of each other in abundance fitness: -0.874 ± 0.15 for the first, -0.615 ± 0.17 for the second.
